# In IntAct's records for PubMed 19293378:
# B1: Apoptosis regulator BHRF1 (Epstein-Barr virus (strain B95-8) (HHV-4)), P03182 (parent)
# chain: MAYSTREILLALCIRDSRVHGNGTLHPVLELAARETPLRLSPEDTVVLRYHVLLEEIIERNSETFTETWNRFITHTEHVDLDFNSVFLEIFHRGDPSLGRALAWMAWCMHACRTLCCNQSTPYYVVDLSVRGMLEASEGLDGWIHQQGGWSTLIEDNIPGSRRFSWTLFLAGLTLSLLVICSYLFISRGRH
# partner: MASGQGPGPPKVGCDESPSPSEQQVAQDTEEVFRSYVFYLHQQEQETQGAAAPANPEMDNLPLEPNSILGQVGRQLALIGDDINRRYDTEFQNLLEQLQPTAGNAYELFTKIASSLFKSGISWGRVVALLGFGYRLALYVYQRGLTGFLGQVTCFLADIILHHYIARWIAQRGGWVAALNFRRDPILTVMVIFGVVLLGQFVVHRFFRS
# B2: Apoptosis regulator BHRF1 (Epstein-Barr virus (strain B95-8) (HHV-4)), P03182 (parent)
# chain: B1 chain
# Variants of: B1
# Conditions: with bak_mouse Bak1, O08734
row,Variant,effect of a mutation on the interaction
1,G99A,decreasing interaction strength
2,L98A;G99A;R100A,disrupting interaction strength
3,R100A,decreasing interaction strength
4,L98A,decreasing interaction strength

# Variants of: B2
# Conditions: with Bcl2l11, O54918
# Bcl2l11, O54918, sequence (O54918 whole entry): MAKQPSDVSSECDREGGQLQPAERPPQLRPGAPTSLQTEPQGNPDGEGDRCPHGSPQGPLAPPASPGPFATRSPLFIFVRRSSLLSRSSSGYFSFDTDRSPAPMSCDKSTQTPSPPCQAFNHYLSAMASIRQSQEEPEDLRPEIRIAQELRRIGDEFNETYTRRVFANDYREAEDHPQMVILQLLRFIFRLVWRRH
row,Variant,effect of a mutation on the interaction
1,G99A,decreasing interaction strength
